From PMC10773898, “Evidence of DISC1 as an arsenic binding protein and implications regarding its role as a translational activator” (Frontiers in Molecular Biosciences, 2023)
Positions count from the first letter of the chain named. Names may count otherwise.

B1: DISC1 C-terminal construct (598-854), WT (domain or fragment, human, UniProt Q9NRI5-1 598-854, looked up)
chain: GNHFFTAKDLTEEIRSLTSEREGLEGLLSKLLVLSSRNVKKLGSVKEDYNRLRREVEHQETAYETSVKENTMKYMETLKNKLCSCKCPLLGKVWEADLEACRLLIQSLQLQEARGSLSVEDERQMDDLEGAAPPIPPRLHSEDKRKTPLKVLEEFKTHLIPSLHCAGGEQKEESYILSAELGEKCEDIGKKLLYLEDQLHTAIHSHDEDLIQSLRRELQMVKETLQAMILQLQPAKEAGEREAAASCMTAGVHEAQA
notes: Disrupted-in-schizophrenia-1 (DISC1), human, residues 598-854, with W602F and W752F so that W691 is the single tryptophan; In pET28b(+) as His-tag fusion; also called DISC1 598-854; C-terminal WT construct; source: E. coli BL21 (DE3), purified (Ni-NTA, SEC)
B2: DISC1 598-854 C682S/C698S/C762S/C782S/C844S (domain or fragment, human, UniProt Q9NRI5-1 598-854, looked up)
chain: B1 chain with C85S, C101S, C165S, C185S, C247S
notes: DISC1, human, residues 598-854; source: E. coli BL21 (DE3), purified (Ni-NTA, SEC)
B3: DISC1 598-854 C684S/C698S/C762S/C782S/C844S (domain or fragment, human, UniProt Q9NRI5-1 598-854, looked up)
chain: B1 chain with C87S, C101S, C165S, C185S, C247S
notes: as for B2
B4: DISC1 598-854 C680S/C682S/C698S/C762S/C782S/C844S (domain or fragment, human, UniProt Q9NRI5-1 598-854, looked up)
chain: B1 chain with C83S, C85S, C101S, C165S, C185S, C247S
notes: as for B2
B5: DISC1 598-854 C680S/C698S/C762S/C782S/C844S (domain or fragment, human, UniProt Q9NRI5-1 598-854, looked up)
chain: B1 chain with C83S, C101S, C165S, C185S, C247S
notes: as for B2
B6: DISC1 598-854 C682S/C684S/C698S/C762S/C782S/C844S (domain or fragment, human, UniProt Q9NRI5-1 598-854, looked up)
chain: B1 chain with C85S, C87S, C101S, C165S, C185S, C247S
notes: as for B2
B7: DISC1 598-854 (C698S/C762S/C782S/C844S) (domain or fragment, human, UniProt Q9NRI5-1 598-854, looked up)
chain: B1 chain with C101S, C165S, C185S, C247S
notes: DISC1, human, residues 598-854; also called WT*; pseudo-WT variant; source: E. coli BL21 (DE3), purified (Ni-NTA, SEC)
B8: DISC1 598-854 C680S/C682S/C684S/C698S/C762S/C782S/C844S (domain or fragment, human, UniProt Q9NRI5-1 598-854, looked up)
chain: B1 chain with C83S, C85S, C87S, C101S, C165S, C185S, C247S
notes: DISC1, human, residues 598-854, all cysteines mutated to serine; also called C680S/C6802S/C684S*; C680S/C684S/C682S*; source: E. coli BL21 (DE3), purified (Ni-NTA, SEC)
B9: DISC1 598-854 C680S/C684S/C698S/C762S/C782S/C844S (domain or fragment, human, UniProt Q9NRI5-1 598-854, looked up)
chain: B1 chain with C83S, C87S, C101S, C165S, C185S, C247S
notes: as for B2

Target: the molecule itself
Assay: SEC; HiLoad 26/600 Superdex 200 pg; 50 mM Tris-HCl, 10 mM NaCl, pH 8.0; self-association of the purified construct

Row | Protein | stoichiometry N | binding result
1 | B1 | 4 | –
2 | B2 | – | binds
3 | B3 | – | binds
4 | B4 | – | binds
5 | B5 | – | binds
6 | B6 | – | binds
7 | B7 | – | binds
8 | B8 | – | binds
9 | B9 | – | binds
